{"source": "patent US20180273635A1", "about": "(Zymeworks, published 2018)", "binders": {"B1": {"name": "Variant 12471 (antibody, human IgG1, kappa, name in Kabat numbering, V domains shown)", "VH": "EVQLVESGGGLVQPGGSLRLSCAASGFTFADYTMDWVRQAPGKGLEWVGDVNPNSGGSIYNQRFKGRFTFSVDRSKNTLYLQMNSLRAEDTAVYYCARNLGPSFYFDYWGQGTLVTVSS", "VL": "DIQMTQSPSSLSASVGDRVTITCKASQDVSIGVAWYQQKPGKAPKLLIYSASYRYTGVPSRFSGSGSGTDFTLTISSLQPEDFATYYCQQYYIYPATFGQGTKVEIKR", "notes": "Kabat numbering; also called v12471; FSA version of v9996"}, "B2": {"name": "variant 12471 (antibody, human IgG1, kappa, name in Kabat numbering, V domains shown)", "VH": "B1 VH", "VL": "B1 VL", "notes": "FSA, bivalent, wild type Fc; also called v12471; FSA version of v9996"}, "B3": {"name": "Variant 4434 (antibody, name in Kabat numbering, V domains shown)", "VH": "B1 VH with G49A, F70L", "VL": "DIQMTQSPSSLSASVGDRVTITCKASQDVSIGVAWYQQKPGKAPKLLIYSASYRYTGVPSRFSGSGSGTDFTLTISSLQPEDFATYYCQQYYIYPYTFGQGTKVEIK", "notes": "also called literature pertuzumab variant"}, "B4": {"name": "Variant 4436 (antibody, name in Kabat numbering, V domains shown)", "VH": "B1 VH with A30T, G49A, F64V, F70L", "VL": "B3 VL", "notes": "as for B3"}, "B5": {"name": "Variant 4435 (antibody, V domains shown)", "VH": "B1 VH with A30T, G49A, G57A, F70L", "VL": "B3 VL", "notes": "as for B3"}, "B6": {"name": "Variant 10014 (pertuzumab T30A / Y96A, one-armed format) (antibody)", "heavy": "EVQLVESGGGLVQPGGSLRLSCAASGFTFADYTMDWVRQAPGKGLEWVADVNPNSGGSIYNQRFKGRFTLSVDRSKNTLYLQMNSLRAEDTAVYYCARNLGPSFYFDYWGQGTLVTVSSASTKGPSVFPLAPSSKSTSGGTAALGCLVKDYFPEPVTVSWNSGALTSGVHTFPAVLQSSGLYSLSSVVTVPSSSLGTQTYICNVNHKPSNTKVDKKVEPKSCDKTHTCPPCPAPELLGGPSVFLFPPKPKDTLMISRTPEVTCVVVDVSHEDPEVKFNWYVDGVEVHNAKTKPREEQYNSTYRVVSVLTVLHQDWLNGKEYKCKVSNKALPAPIEKTISKAKGQPREPQVYVYPPSRDELTKNQVSLTCLVKGFYPSDIAVEWESNGQPENNYKTTPPVLDSDGSFALVSKLTVDKSRWQQGNVFSCSVMHEALHNHYTQKSLSLSPG", "light": "not shown", "Fc": "not shown", "notes": "Monovalent one-armed (OA) antibody; also called v10014"}}, "key": {"[1]": {"target": "T1, HER2 expressed on the surface of cells (human, UniProt P04626 23-1255)", "assay": "cell-based or functional assay"}, "[2]": {"target": "T1, HER2 expressed on the surface of cells", "assay": "flow cytometry on SKBR3 cells, n=1", "method": "(§1) Binding of the test antigen-binding constructs to the surface of HER2+ cells was determined by flow cytometry. Cells were washed with PBS and resuspended in DMEM at 1×10⁵ cells/100 μl. 100 μl cell suspension was added into each microcentrifuge tube, followed by 10 μl/tube of the antigen-binding constructs. The tubes were incubated for 2 hr at 4° C. on a rotator. The microcentrifuge tubes were centrifuged for 2 min 2000 RPM at room temperature and the cell pellets washed with 500 μl media. Each cell pellet was resuspended in 100 μl of fluorochrome-labelled secondary antibody diluted in media to 2 μg/sample. The samples were then incubated for lhr at 4° C. on a rotator. After incubation, the cells were centrifuged for 2 min at 2000 rpm and washed in media. The cells were resuspended in 500 μl media, filtered, transferred to a tube containing 5 μl propidium iodide (PI) and analyzed on a BD LSR II flow cytometer according to the manufacturer's instructions. The B50 of the tested antigen-binding constructs was assessed by FACS with data analysis and curve fitting performed in GraphPad Prism. The experiment was carried out once (n=1) in SKBr3 cells, and twice (n=2) in SKOV3, MCF7, and BT-474 cells.\n(§2) The experiment was performed once (n=1) in each cell line."}, "[3]": {"target": "T1, HER2 expressed on the surface of cells", "assay": "cell-based or functional assay", "remark": "listed apart in the source"}, "[4]": {"target": "T1, HER2 expressed on the surface of cells", "assay": "cell-based or functional assay", "remark": "listed apart in the source"}, "[5]": {"target": "T1, HER2 expressed on the surface of cells", "assay": "cell-based or functional assay", "remark": "listed apart in the source"}, "[6]": {"target": "T1, HER2 expressed on the surface of cells", "assay": "flow cytometry on MCF7 cells (low HER2), n=1", "method": "as §1, §2"}, "[7]": {"target": "T1, HER2 expressed on the surface of cells", "assay": "cell-based or functional assay", "remark": "listed apart in the source"}, "[8]": {"target": "T1, HER2 expressed on the surface of cells", "assay": "flow cytometry on MCF7 cells (low HER2), n=1; B50 = concentration at 50% of Bmax", "method": "as §1, §2"}, "[9]": {"target": "T1, HER2 expressed on the surface of cells", "assay": "cell-based or functional assay", "remark": "listed apart in the source"}, "[10]": {"target": "T1, HER2 expressed on the surface of cells", "assay": "cell-based or functional assay", "remark": "listed apart in the source"}, "[11]": {"target": "T1, HER2 expressed on the surface of cells", "assay": "flow cytometry on BT474 cells, n=1", "method": "as §1, §2"}, "[12]": {"target": "T1, HER2 expressed on the surface of cells", "assay": "flow cytometry on BT474 cells, n=1; B50 = concentration at 50% of Bmax", "method": "as §1, §2"}, "[13]": {"target": "T1, HER2 expressed on the surface of cells", "assay": "flow cytometry on SKBR3 cells, n=1; B50 = concentration at 50% of Bmax", "method": "as §1, §2"}, "Recombinant human HER2 [14]": {"target": "T2, Recombinant human HER2 (human, UniProt P04626 23-652)", "T2 construct": "extracellular domain; analyte of the SPR assays; also called HER2 ECD; ECD2 of HER2", "assay": "SPR, FSA captured on anti-human Fc, HER2 flowed, 25 C, after protein A and SEC"}, "Recombinant human HER2 [15]": {"target": "T3, Recombinant human HER2 (human, UniProt P04626 23-652)", "T3 construct": "extracellular domain; Analyte of the SPR assays; also called HER2 ECD; ECD2 of HER2", "assay": "SPR as in Example 3, average of three independent runs", "method": "(§3) The affinity towards HER2 ECD of the samples was measured by SPR on a Biacore T200 as follows. Between 2000 and 4000 RU of anti-human Fc injected at concentration between 5 and 10 μg/ml was immobilized on a CM5 chip using standard amine coupling. Antigen-binding constructs were captured on the anti-human Fc (injected at concentration at 0.51 microg/mL in PBST, 1 min at 10 microl/min) at response levels ranging from 120-270 RU. […] HER2 dilutions were analyzed in duplicates. Sensograms were fit globally to a 1: 1 Langmuir binding model, using the software provided with the Biacore T200. All experiments were conducted at 25° C."}, "Recombinant human HER2 [16]": {"target": "T3, Recombinant human HER2", "assay": "SPR, Ka ratio to WT pertuzumab", "method": "as §3"}, "Recombinant human HER2 [17]": {"target": "T4, Recombinant human HER2 (human, UniProt P04626 23-652)", "T4 construct": "extracellular domain; also called HER2 ECD", "assay": "SPR at 25 C, affinity against WT v10013", "method": "as §3"}, "Recombinant human HER2 [18]": {"target": "T4, Recombinant human HER2", "assay": "SPR at 25 C, affinity against v10014 (itself, reference)", "method": "as §3"}}, "note": "Positions count from the first letter of the chain named. Names may count otherwise.", "data": [{"binder": "B1", "values": [{"measurement": "growth inhibition IC50, BT474 cells + EGF, 6 days", "setting": "[1]", "value": 0.3, "unit": "nM"}, {"measurement": "growth inhibition IC50, BT474 cells, 6 days", "setting": "[1]", "value": 0.1, "unit": "nM"}, {"measurement": "Bmax", "setting": "[2]", "value": 27000, "unit": "MFI"}, {"measurement": "growth inhibition IC50 (potency), BT474 cells", "setting": "[3]", "value": 0.31, "unit": "nM"}, {"measurement": "growth inhibition span (percentage of cells killed), BT474 cells", "setting": "[3]", "value": 26, "unit": "%"}, {"measurement": "growth inhibition span ratio to WT, BT474 cells", "setting": "[3]", "value": 2.5, "unit": "fold"}, {"measurement": "growth inhibition IC50 (potency), BT474 cells + EGF", "setting": "[4]", "value": 1, "unit": "nM"}, {"measurement": "growth inhibition span (percentage of cells killed), BT474 cells + EGF", "setting": "[4]", "value": 27, "unit": "%"}, {"measurement": "growth inhibition span ratio to WT, BT474 cells + EGF", "setting": "[4]", "value": 1.5, "unit": "fold"}, {"measurement": "growth inhibition IC50 (potency), SKBR3 cells, 5 days", "setting": "[5]", "value": 0.1, "unit": "nM"}, {"measurement": "Bmax", "setting": "[6]", "value": 570, "unit": "MFI"}, {"measurement": "growth inhibition span (percentage of cells killed), MDA-MB-175 cells", "setting": "[7]", "value": 75, "unit": "%"}, {"measurement": "B50", "setting": "[8]", "value": 1.2, "unit": "nM"}, {"measurement": "growth inhibition IC50 (potency), NCI-N87 cells, 5 days", "setting": "[9]", "value": 1.8, "unit": "nM"}, {"measurement": "growth inhibition span (percentage of cells killed), NCI-N87 cells", "setting": "[9]", "value": 32, "unit": "%"}, {"measurement": "increase in efficacy with respect to the WT, NCI-N87 cells", "setting": "[9]", "value": 1.9, "unit": "fold"}, {"measurement": "increase in potency with respect to the WT, NCI-N87 cells", "setting": "[9]", "value": 5.1, "unit": "fold"}, {"measurement": "growth inhibition IC50 (potency), SKBR3 cells", "setting": "[10]", "value": 0.12, "unit": "nM"}, {"measurement": "growth inhibition span (percentage of cells killed), SKBR3 cells", "setting": "[10]", "value": 22, "unit": "%"}, {"measurement": "growth inhibition span ratio to WT, SKBR3 cells", "setting": "[10]", "value": 1.3, "unit": "fold"}, {"measurement": "Bmax", "setting": "[11]", "value": 23000, "unit": "MFI"}, {"measurement": "B50", "setting": "[12]", "value": 3.1, "unit": "nM"}, {"measurement": "B50", "setting": "[13]", "value": 6.6, "unit": "nM"}]}, {"binder": "B2", "values": [{"measurement": "Kd", "setting": "Recombinant human HER2 [14]", "value": 1.8, "unit": "nM"}]}, {"binder": "B3", "values": [{"measurement": "Kd", "setting": "Recombinant human HER2 [15]", "value": 4, "unit": "nM"}, {"measurement": "SPR Ka, mut/Ka, WT", "setting": "Recombinant human HER2 [16]", "value": 3.3, "unit": "fold"}]}, {"binder": "B4", "values": [{"measurement": "Kd", "setting": "Recombinant human HER2 [15]", "value": 5.7, "unit": "nM"}, {"measurement": "SPR Ka, mut/Ka, WT", "setting": "Recombinant human HER2 [16]", "value": 2.4, "unit": "fold"}]}, {"binder": "B5", "values": [{"measurement": "Kd", "setting": "Recombinant human HER2 [15]", "value": 15, "unit": "nM"}, {"measurement": "SPR Ka, mut/Ka, WT", "setting": "Recombinant human HER2 [16]", "value": 0.9, "unit": "fold"}]}, {"binder": "B6", "values": [{"measurement": "Fold wrt WT", "setting": "Recombinant human HER2 [17]", "value": 7, "unit": "fold"}, {"measurement": "Fold wrt v10014", "setting": "Recombinant human HER2 [18]", "value": 1, "unit": "fold"}]}]}
